Patent EP2338512A1 (MedImmune, LLC, dated 2011)

Experiments:
[1] = molecular target: T1, RSV F glycoprotein (NUF4) (respiratory syncytial virus (strain not …)); test: BIAcore, monoclonal antibody vs NUF4 (2:1)
[2] = molecular target: T1, RSV F glycoprotein (NUF4); test: ITC, NUF4 titrated into antibody
Bac-F = test: BIAcore, monoclonal antibody vs Bac-F (1:1)
[3] = molecular target: T1, RSV F glycoprotein (NUF4); test: BIAcore, monoclonal antibody vs NUF4 (1:1)

B1: A4B4 (monoclonal antibody) (antibody, V domains shown)
VH: QVTLRESGPALVKPTQTLTLTCTFSGFSLSTAGMSVGWIRQPPGKALEWLADIWWDDKKHYNPSLKDRLTISKDTSKNQVVLKVTNMDPADTATYYCARDMIFNFYFDVWGQGTTVTVSS
VL: DIQMTQSPSTLSASVGDRVTITCSASSRVGYMHWYQQKPGKAPKLLIYDTFFLDSGVPSRFSGSGSGTEFTLTISSLQPDDFATYYCFQGSGYPFTFGGGTKLEIK
number in parentheses after KD (ratio to SYNAGIS, which has 1) [1]: 156 fold
ΔHb [2]: 22.2 kcal/mol
number in parentheses after KD (ratio to SYNAGIS, which has 1) (Bac-F): 195 fold
number in parentheses after KD (ratio to SYNAGIS, which has 1) [3]: 15 fold
